In patent publication US11198713B2, “Agents modulating beta-catenin functions and methods thereof” (FOG PHARMACEUTICALS, INC., priority 2017, dated 2021):
Numbered stars: 1 amine (or outer) side, 2 acyl side, 3 side chain; on linkers, the order of the positions; unused ones are H or OH. Bridge positions count the residues as written; N and C are the ends. Square brackets hold non-standard residues; d marks the D form. Primed or numbered codes have the meaning given here. MB(10) = Monomer B = PyrS, pyrrolidine stapling residue with allyl carbamate, (S)-3-amino-1-(allyloxycarbonyl)pyrrolidine-3-carboxylic acid, C=CCOC(=O)N1CC[C@@](N[*:1])(C(=O)[*:2])C1; MB(4) = Monomer B (PyrS), N-Alloc pyrrolidine stapling residue, (S)-3-amino-1-(allyloxycarbonyl)pyrrolidine-3-carboxylic acid, C=CCOC(=O)N1CC[C@@](N[*:1])(C(=O)[*:2])C1; MB(6) = Monomer B (PyrS), N-Alloc pyrrolidine stapling residue, forms carbamate staple with R8 by olefin metathesis; R7″ = stapling residue, (R)-2-(6-heptenyl)alanine (drawn only), C=CCCCCC[C@@](C)(N[*:1])C(=O)[*:2]; MB = Monomer B = PyrS, Alloc-pyrrolidine stapling residue (allyl carbamate on pyrrolidine N); Tyr(OMe) = O-methyl tyrosine (source code MeY), COc1ccc(C[C@H](N[*:1])C(=O)[*:2])cc1; MB(13) = Monomer B (PyrS), pyrrolidine stapling residue bearing Alloc; R7 = (R)-2-(6-heptenyl)alanine, C=CCCCCC[C@@](C)(N[*:1])C(=O)[*:2]; MB(5) = Monomer B (PyrS), N-Alloc pyrrolidine stapling residue; αMeW = C[C@](N)(Cc1c[nH]c2ccccc12)C(=O)O; Phe(4-F) = N[C@@H](Cc1ccc(F)cc1)C(=O)O; Phe(4-Me) = Cc1ccc(C[C@H](N)C(=O)O)cc1; 1Nal = N[C@@H](Cc1cccc2ccccc12)C(=O)O; Met(O2) = CS(=O)(=O)CC[C@H](N)C(=O)O; Ala(cPr) = N[C@@H](CC1CC1)C(=O)O; 2Pal = N[C@@H](Cc1ccccn1)C(=O)O; 3Pal = N[C@@H](Cc1cccnc1)C(=O)O; 4Pal = N[C@@H](Cc1ccncc1)C(=O)O; R8 = C=CCCCCCC[C@@](C)(N)C(=O)O; αMeL = CC(C)C[C@](C)(N)C(=O)O; cpa = 3-cyclopropylalanine; Aib = CC(C)(N)C(=O)O

T1: full-length beta-catenin (UniProt P35222 2-781, limits assumed)
T1 construct: mature; also called full-length ß-Catenin; β-catenin
T1 sequence (looked up): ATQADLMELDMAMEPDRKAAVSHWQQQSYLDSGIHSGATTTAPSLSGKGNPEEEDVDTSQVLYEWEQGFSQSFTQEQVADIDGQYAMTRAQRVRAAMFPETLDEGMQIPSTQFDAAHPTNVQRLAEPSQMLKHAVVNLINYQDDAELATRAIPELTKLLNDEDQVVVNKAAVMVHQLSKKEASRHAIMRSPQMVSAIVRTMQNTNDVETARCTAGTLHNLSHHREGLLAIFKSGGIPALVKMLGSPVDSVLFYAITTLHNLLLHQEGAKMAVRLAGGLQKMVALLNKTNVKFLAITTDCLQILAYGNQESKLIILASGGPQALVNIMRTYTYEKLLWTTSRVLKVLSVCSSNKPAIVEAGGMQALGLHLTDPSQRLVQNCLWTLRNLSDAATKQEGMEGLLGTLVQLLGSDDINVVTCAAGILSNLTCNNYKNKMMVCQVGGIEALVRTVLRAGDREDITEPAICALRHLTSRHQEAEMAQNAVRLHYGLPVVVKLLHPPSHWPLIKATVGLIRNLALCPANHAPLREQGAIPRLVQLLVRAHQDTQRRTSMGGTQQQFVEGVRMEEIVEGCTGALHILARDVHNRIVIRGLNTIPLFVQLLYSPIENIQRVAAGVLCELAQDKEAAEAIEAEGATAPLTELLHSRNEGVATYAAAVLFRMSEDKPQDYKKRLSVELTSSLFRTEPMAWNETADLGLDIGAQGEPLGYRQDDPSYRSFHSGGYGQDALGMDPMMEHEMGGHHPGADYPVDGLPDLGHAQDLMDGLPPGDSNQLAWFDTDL

B1: FP0570c Isomer 1 (peptide)
peptide: Ac-A[R8]ILDA[2Pal]I[MB(6)][Aib]VW-NH2
modifications: staple 2-9; not fully specified; printed as Ac-A-R8-I-L-D-A-2pyr-I-MB-Aib-V-W-NH2
B2: FP0574c Isomer 1 (peptide)
peptide: Ac-A[R8]ILDA[2Pal]I[MB(5)][Ala(cPr)]VW-NH2
modifications: staple 2-9; not fully specified; printed as Ac-A-R8-I-L-D-A-2pyr-I-MB-cpa-V-W-NH2
B3: FP0578c Isomer 1 (peptide)
peptide: Ac-A[R8]ILDA[2Pal]I[MB(4)][Phe(4-Me)]VW-NH2
modifications: staple 2-9; not fully specified; printed as Ac-A-R8-I-L-D-A-2pyr-I-MB-4MeF-V-W-NH2
B4: FP0574c Isomer 2 (peptide)
peptide: Ac-A[R8]ILDA[2Pal]I[MB(4)][cpa]VW-NH2
modifications: staple 2-9; not fully specified; printed as Ac-A-R8-I-L-D-A-2pyr-I-MB-cpa-V-W-NH2
B5: FP0575c Isomer 1 (peptide)
peptide: Ac-A[R8]ILDA[2Pal]I[MB(4)][Tyr(OMe)]VW-NH2
modifications: staple 2-9; not fully specified; printed as Ac-A-R8-I-L-D-A-2pyr-I-MB-MeY-V-W-NH2
B6: FP0577c Isomer 1 (peptide)
peptide: Ac-A[R8]ILDA[2Pal]I[MB(4)][1Nal]VW-NH2
modifications: staple 2-9; not fully specified; printed as Ac-A-R8-I-L-D-A-2pyr-I-MB-1NapA-V-W-NH2
B7: FP0576c Isomer 2 (peptide)
peptide: Ac-A[R8]ILDA[2Pal]I[MB(4)][Phe(4-F)]VW-NH2
modifications: staple 2-9; not fully specified; printed as Ac-A-R8-I-L-D-A-2pyr-I-MB-4FF-V-W-NH2
B8: FP0578c Isomer 2 (peptide)
peptide: Ac-A[R8]ILDA[2Pal]I[MB(4)][Phe(4-Me)]VW-NH2
modifications: staple 2-9; not fully specified; printed as Ac-A-R8-I-L-D-A-2pyr-I-MB-4MeF-V-W-NH2
B9: FP0573c Isomer 1 (peptide)
peptide: Ac-A[R8]ILDA[2Pal]I[MB(5)][3Pal]VW-NH2
modifications: staple 2-9; not fully specified; printed as Ac-A-R8-I-L-D-A-2pyr-I-MB-3pyr-V-W-NH2
B10: FP0573c Isomer 2 (peptide)
peptide: Ac-A[R8]ILDA[2Pal]I[MB(5)][3Pal]VW-NH2
modifications: staple 2-9; not fully specified; printed as Ac-A-R8-I-L-D-A-2pyr-I-MB-3pyr-V-W-NH2
B11: FP0576c Isomer 1 (peptide)
peptide: Ac-A[R8]ILDA[2Pal]I[MB(4)][Phe(4-F)]VW-NH2
modifications: staple 2-9; not fully specified; printed as Ac-A-R8-I-L-D-A-2pyr-I-MB-4FF-V-W-NH2
B12: FP0575c Isomer 2 (peptide)
peptide: Ac-A[R8]ILDA[2Pal]I[MB(4)][Tyr(OMe)]VW-NH2
modifications: staple 2-9; not fully specified; printed as Ac-A-R8-I-L-D-A-2pyr-I-MB-MeY-V-W-NH2
B13: FP0570c Isomer 2 (peptide)
peptide: Ac-A[R8]ILDA[2Pal]I[MB(6)][Aib]VW-NH2
modifications: staple 2-9; not fully specified; printed as Ac-A-R8-I-L-D-A-2pyr-I-MB-Aib-V-W-NH2
B14: FP0365c Isomer 1 (peptide)
peptide: AXILDAHIXAVW
modifications: not fully specified; Ac-A-R8-I-L-D-A-H-I-MB-1NapA-V-W-NH2; carbamate staple R8/MB
B15: FP0365c Isomer 2 (peptide)
peptide: AXILDAHIXAVW
modifications: not fully specified; Ac-A-R8-I-L-D-A-H-I-MB-1NapA-V-W-NH2; carbamate staple R8/MB
B16: FP0495a (peptide)
peptide: Ac-A[R7]ILDAHI[MD]RVW-NH2
modifications: staple 2-9; not fully specified; printed as Ac-A-R7-I-L-D-A-H-I-MD-R-V-W-NH2; also: amino staple R7/MD (-N(R')-, after CO2 extrusion from carbamate staple)

biological target: T1, full-length beta-catenin; assay: competition FP; NB = no binding detected
Procedure: (§1) In some embodiments, a competition fluorescence polarization assay is used to assess binding of provided compounds to beta-catenin. In an exemplary procedure, solutions of provided compounds, e.g., provided stapled peptides, were prepared in a buffer (e.g., 50 mM Tris pH 8.0, 250 mM NaCl, 2% glycerol, 0.5 mM EDTA, 0.02% w/v sodium azide) using a 3-fold serial dilution from 5 µM. Probe solution (15 nM full-length ß-Catenin, 20 nM FITC labeled peptide in buffer) was prepared and incubated for a period of time, e.g., 5 minutes, and the a volume, e.g., 40 µL per well plated in suitable plate, e.g., a black polystyrene 384-well plate (Corning). Equal volume of the serial diluted peptide was added to the plate and incubated protected from light for 15 minutes prior to read. Reads were performed on a Spectramax M5 (Molecular Devices) in duplicate. Suitable probe was FITC-PEG1-PQ-S5-ILD-S5-HVRRVWR (SEQ ID NO: 1) (hydrocarbon staple formed by two S5 via olefin metathesis) and/or FITC-bA-PQ-S5-ILD-S5-HVRRVWR (SEQ ID NO: 3) (hydrocarbon staple formed by two S5 via olefin metathesis). […] Another peptide, FPO217c (Ac-AR_8ILDAHIM$B5$RVW (SEQ ID NO: 280), with N-terminal proline removed and valine replaced with isoleucine compared to FP0025c) was prepared.

binding result | Binder
no binding | B1
no binding | B2
no binding | B3
no binding | B4
no binding | B5
no binding | B6
no binding | B7
no binding | B8
no binding | B9
no binding | B10
no binding | B11
no binding | B12
no binding | B13

biological target: T1, full-length beta-catenin; assay: competition FP, grade of FP EC50 (+: 500-5000 nM)
Procedure: as §1

FP EC50 | Binder
500 to 5000 nM | AXILDAHIXRVW (not fully specified; Ac-A-R4-I-L-D-A-H-I-MH-R-V-W-NH2; amino staple R4/MH) [FP0509a]
500 to 5000 nM | B14
500 to 5000 nM | Ac-A[R8]ILDAHI[MB(4)]R[αMeL]W-NH2 (staple 2-9) [FP0633c]
500 to 5000 nM | AXILAAHIXRVW (not fully specified; Ac-A-R8-I-L-A-A-H-I-MB-R-V-W-NH2; carbamate staple R8/MB) [FP0407c]
500 to 5000 nM | Ac-A[R8]ILDA[4Pal]I[MB(13)]RVW-NH2 (staple 2-9) [FP0538c]
500 to 5000 nM | Ac-A[R8]IL[Met(O2)]AHI[MB(5)]RVW-NH2 (staple 2-9) [FP0629c]
500 to 5000 nM | AXALDAHIXRVW (not fully specified; Ac-A-R8-A-L-D-A-H-I-MB-R-V-W-NH2; carbamate staple R8/MB) [FP0405c]
500 to 5000 nM | B15
500 to 5000 nM | Ac-A[R8]ILDAHI[MB(10)]SVW-NH2 (staple 2-9) [FP0542c]
500 to 5000 nM | AXILDAHIXRVW (not fully specified; Ac-A-MG-I-L-D-A-H-I-ME-R-V-W-NH2; carbamate staple MG/ME) [FP0596c]
500 to 5000 nM | Ac-A[R8]ILDAHI[MB(4)]RV[αMeW]-NH2 (staple 2-9) [FP0631c]
500 to 5000 nM | AXILDAHIXRVW (not fully specified; Ac-A-R5-I-L-D-A-H-I-MH-R-V-W-NH2; amino staple R5/MH) [FP0510a]
500 to 5000 nM | Ac-A[R8]ILDAHI[MB]RVW-NH2 (staple 2-9; also: Isomer 1, staple olefin E/Z not assigned, also called FPO217c Isomer 1) [FP0217c Isomer 1]
500 to 5000 nM | B16
500 to 5000 nM | Ac-A[R7″]ILDAHI[MA]RVW-NH2 (staple 2-9; not fully specified; printed as Ac-A-R7-I-L-D-A-H-I-MA-R-V-W-NH2) [FP0516a Isomer 2]
500 to 5000 nM | AXILDAHIXRVW (not fully specified; Ac-A-MI-I-L-D-A-H-I-S6-R-V-W-NH2; carbamate staple MI/S6) [FP0507c]
